{
  "source": "patent US20260317413",
  "about": "(published 2026)",
  "key": {"alpha-cobratoxin [1]": {"biological_target": "T1, alpha-cobratoxin (Naja kaouthia, UniProt P01391)", "T1 chain": "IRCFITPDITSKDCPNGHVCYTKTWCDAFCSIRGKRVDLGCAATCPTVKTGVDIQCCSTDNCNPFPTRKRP", "experiment": "BLI"}, "alpha-cobratoxin [2]": {"biological_target": "T1, alpha-cobratoxin", "experiment": "BLI"}, "alpha-bungarotoxin [3]": {"biological_target": "T2, alpha-bungarotoxin (Bungarus multicinctus, UniProt P60615)", "T2 sequence (P60615 22-95)": "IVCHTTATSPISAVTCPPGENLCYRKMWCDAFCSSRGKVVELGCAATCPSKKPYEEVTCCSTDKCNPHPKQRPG", "experiment": "BLI"}, "alpha-cobratoxin [4]": {"biological_target": "T1, alpha-cobratoxin", "experiment": "BLI"}, "alpha-cobratoxin [5]": {"biological_target": "T1, alpha-cobratoxin", "experiment": "SPR"}, "alpha-cobratoxin [6]": {"biological_target": "T1, alpha-cobratoxin", "experiment": "SPR"}, "alpha-cobratoxin [7]": {"biological_target": "T1, alpha-cobratoxin", "experiment": "BLI"}, "alpha-bungarotoxin [8]": {"biological_target": "T2, alpha-bungarotoxin", "experiment": "BLI", "remark": "listed apart in the source"}},
  "note": "Read-outs that look alike come from different tables or passages of the source.",
  "data": [
    {"binder": "2554_01_D11 (antibody, V domains shown) VH: QVQLVQSGAEVKKPGSSVKVSCKASGGTFSSYAISWVRQAPGQGLEWMGGIIPIFGTANYAQKFQGRVTITADESTSTAYMELRSLRSDDTAVYYCARDNLGYCSGGSCYSDYYYYYMDVWGQGTLVTVSS VL: SNFMLTQPRSVSESPGKTVTISCTRSSGSIGSDYVHWYQQRPGSSPTTVIYEDNQRPSGVPDRFSGSIDSSSNSASLTISGLKTEDEADYYCQSYDRSNHEVVFGGGTKLTVL", "values": [
      {"measurement": "koff", "setting": "alpha-cobratoxin [1]", "result": 0.000327, "unit": "s⁻¹"},
      {"measurement": "Kd", "setting": "alpha-cobratoxin [2]", "result": 2.91, "unit": "nM"},
      {"measurement": "koff", "setting": "alpha-bungarotoxin [3]", "result": 0.00388, "unit": "s⁻¹"},
      {"measurement": "koff", "setting": "alpha-cobratoxin [4]", "result": 0.000396, "unit": "s⁻¹"},
      {"measurement": "Kd", "setting": "alpha-cobratoxin [5]", "result": 2.3, "unit": "nM"},
      {"measurement": "Kd", "setting": "alpha-cobratoxin [6]", "result": 10.4, "unit": "nM"},
      {"measurement": "Kd", "setting": "alpha-cobratoxin [7]", "result": 2.9, "unit": "nM"},
      {"measurement": "Kd", "setting": "alpha-bungarotoxin [8]", "result": 122, "unit": "nM"}
    ]}
  ]
}
